Test results as given in paper PMC4618406.

How the values were obtained:
[1] = ThT fluorescence of gT72/unmodified mixtures, 50 μM total; details: glycan gained, control: unmodified α-synuclein
[2] = TEM of fibers from mixtures; details: glycan gained; control: unmodified α-synuclein, 50 μM

With α-synuclein: 10% α-synuclein(gT72) the “other: fibril aggregation” value [1] was “decreases”.
With α-synuclein: 50% α-synuclein(gT72) the “other: fibril aggregation” value [1] was “decreases”.
In the case of “α-synuclein: 10-50% α-synuclein(gT72) mixtures”, the structure_or_conformation [2] is reported as “no change”.
For α-synuclein: 25% α-synuclein(gT72), the “other: fibril aggregation” value [1] was “decreases”.
